# Biological target: Mycobacterium tuberculosis H37Rv HigA2 antitoxin (Mycobacterium tuberculosis H37Rv) (UniProt O53467)
# Assay: not stated; in solution; purified MtHigA2
substance,measurement,value
Mycobacterium tuberculosis H37Rv HigA2 antitoxin (from UniProt O53467 1-101) (natural protein),stoichiometry N,2

# Source: publication PMC8420761
